From the array DNA melting data of Ke et al.

Assay: melting temperature; melt of duplexes
Conditions: sodium 0.0675 M; strand 1 µM

| Substance | Tm |
| --- | --- |
| CGACGTGCCGAATGTGCTG+CAGCACATGCTGCACGTCG ((((((((.(.((((((((+)))))))).).)))))))) | 50.8 °C |
| CGACGTGCACGATGTGCTG+CAGCACATGGCGCACGTCG ((((((((.(.((((((((+)))))))).).)))))))) | 50.2 °C |
| CGACGTGCGATATGTGCTG+CAGCACATCTGGCACGTCG ((((((((.(.((((((((+)))))))).).)))))))) | 50 °C |
| CGACGTGCGGTATGTGCTG+CAGCACATTATGCACGTCG ((((((((...((((((((+))))))))...)))))))) | 51.3 °C |
| CGACGTGCAGTATGTGCTG+CAGCACATAAGGCACGTCG ((((((((..(((((((((+)))))))))..)))))))) | 52.1 °C |
| CGACGTGCTTTATGTGCTG+CAGCACATGGCGCACGTCG ((((((((...((((((((+))))))))...)))))))) | 47.2 °C |
| CGACGTGCGTCATGTGCTG+CAGCACATCATGCACGTCG ((((((((.(.((((((((+)))))))).).)))))))) | 50.8 °C |
| CGACGTGCAATATGTGCTG+CAGCACATAAGGCACGTCG ((((((((..(((((((((+)))))))))..)))))))) | 51.9 °C |
| CGACGTGCGAAATGTGCTG+CAGCACATTACGCACGTCG (((((((((.(((((((((+))))))))).))))))))) | 58.6 °C |
| CGACGTGCTTAATGTGCTG+CAGCACATAATGCACGTCG ((((((((.(.((((((((+)))))))).).)))))))) | 51.5 °C |
| CGACGTGCGCTATGTGCTG+CAGCACATAGGGCACGTCG ((((((((.((((((((((+)))))))))).)))))))) | 59.6 °C |
| CGACGTGCTACATGTGCTG+CAGCACATGTCGCACGTCG ((((((((.((((((((((+)))))))))).)))))))) | 57.2 °C |
| CGACGTGCCCAATGTGCTG+CAGCACATCGAGCACGTCG ((((((((.(.((((((((+)))))))).).)))))))) | 50.3 °C |
| CGACGTGCATTATGTGCTG+CAGCACATCGAGCACGTCG ((((((((...((((((((+))))))))...)))))))) | 47.4 °C |
| CGACGTGCGAAATGTGCTG+CAGCACATACGGCACGTCG ((((((((...((((((((+))))))))...)))))))) | 49 °C |
| CGACGTGCGTTATGTGCTG+CAGCACATTATGCACGTCG ((((((((.(.((((((((+)))))))).).)))))))) | 53 °C |
| CGACGTGCAGCATGTGCTG+CAGCACATCCCGCACGTCG ((((((((.(.((((((((+)))))))).).)))))))) | 46.3 °C |
| CGACGTGCTAAATGTGCTG+CAGCACATGAGGCACGTCG ((((((((...((((((((+))))))))...)))))))) | 53.4 °C |
| CGACGTGCCTTATGTGCTG+CAGCACATTTTGCACGTCG ((((((((...((((((((+))))))))...)))))))) | 47.9 °C |
| CGACGTGCTGAATGTGCTG+CAGCACATAATGCACGTCG ((((((((...((((((((+))))))))...)))))))) | 51 °C |
| CGACGTGCCACATGTGCTG+CAGCACATGGAGCACGTCG ((((((((..(((((((((+)))))))))..)))))))) | 56.1 °C |
| CGACGTGCCTAATGTGCTG+CAGCACATCACGCACGTCG ((((((((.(.((((((((+)))))))).).)))))))) | 46.3 °C |
| CGACGTGCTTTATGTGCTG+CAGCACATTGGGCACGTCG ((((((((...((((((((+))))))))...)))))))) | 49.8 °C |
| CGACGTGCAATATGTGCTG+CAGCACATTCGGCACGTCG ((((((((...((((((((+))))))))...)))))))) | 49.5 °C |

| Substance | Tm |
| --- | --- |
| CGACGTGCGTGATGTGCTG+CAGCACATCCGGCACGTCG ((((((((..(((((((((+)))))))))..)))))))) | 55.7 °C |
| CGACGTGCAGTATGTGCTG+CAGCACATTATGCACGTCG (((((((((..((((((((+))))))))..))))))))) | 52.4 °C |
| CGACGTGCTGTATGTGCTG+CAGCACATAAAGCACGTCG (((((((((.(((((((((+))))))))).))))))))) | 55.5 °C |
| CGACGTGCTGAATGTGCTG+CAGCACATTCGGCACGTCG ((((((((.((((((((((+)))))))))).)))))))) | 60.6 °C |
| CGACGTGCACAATGTGCTG+CAGCACATTGTGCACGTCG (((((((((((((((((((+))))))))))))))))))) | 63 °C |
| CGACGTGCCAGATGTGCTG+CAGCACATATTGCACGTCG ((((((((.(.((((((((+)))))))).).)))))))) | 50.1 °C |
| CGACGTGCTAGATGTGCTG+CAGCACATTTAGCACGTCG ((((((((((.((((((((+)))))))).)))))))))) | 56.6 °C |
| CGACGTGCGGCATGTGCTG+CAGCACATTCTGCACGTCG ((((((((.(.((((((((+)))))))).).)))))))) | 53.1 °C |
| CGACGTGCATTATGTGCTG+CAGCACATCCTGCACGTCG (((((((((..((((((((+))))))))..))))))))) | 49.9 °C |
| CGACGTGCAAAATGTGCTG+CAGCACATGACGCACGTCG ((((((((...((((((((+))))))))...)))))))) | 51.4 °C |
| CGACGTGCGAAATGTGCTG+CAGCACATTTGGCACGTCG ((((((((.((((((((((+)))))))))).)))))))) | 57.3 °C |
| CGACGTGCGCCATGTGCTG+CAGCACATCCCGCACGTCG (((((((((..((((((((+))))))))..))))))))) | 50.6 °C |
| CGACGTGCACTATGTGCTG+CAGCACATGCAGCACGTCG ((((((((...((((((((+))))))))...)))))))) | 45.3 °C |
| CGACGTGCTTAATGTGCTG+CAGCACATGGAGCACGTCG (((((((((..((((((((+))))))))..))))))))) | 54.4 °C |
| CGACGTGCTTAATGTGCTG+CAGCACATTGCGCACGTCG ((((((((..(((((((((+)))))))))..)))))))) | 50.1 °C |
| CGACGTGCGTAATGTGCTG+CAGCACATGAGGCACGTCG ((((((((.(.((((((((+)))))))).).)))))))) | 53.6 °C |
| CGACGTGCGCCATGTGCTG+CAGCACATTCTGCACGTCG ((((((((...((((((((+))))))))...)))))))) | 47.8 °C |
| CGACGTGCCGCATGTGCTG+CAGCACATGGCGCACGTCG ((((((((..(((((((((+)))))))))..)))))))) | 54.9 °C |
| CGACGTGCGACATGTGCTG+CAGCACATTTGGCACGTCG ((((((((.(.((((((((+)))))))).).)))))))) | 50.6 °C |
| CGACGTGCCCAATGTGCTG+CAGCACATGCGGCACGTCG (((((((((..((((((((+))))))))..))))))))) | 54.3 °C |
| CGACGTGCAACATGTGCTG+CAGCACATCACGCACGTCG ((((((((...((((((((+))))))))...)))))))) | 46.5 °C |
| CGACGTGCCGGATGTGCTG+CAGCACATGAAGCACGTCG ((((((((...((((((((+))))))))...)))))))) | 49.9 °C |
| CGACGTGCGAGATGTGCTG+CAGCACATCTCGCACGTCG (((((((((((((((((((+))))))))))))))))))) | 66.5 °C |
| CGACGTGCATGATGTGCTG+CAGCACATTTGGCACGTCG ((((((((...((((((((+))))))))...)))))))) | 50.3 °C |

| Substance | Tm |
| --- | --- |
| CGACGTGCCACATGTGCTG+CAGCACATAGCGCACGTCG ((((((((...((((((((+))))))))...)))))))) | 48.5 °C |
| CGACGTGCCCGATGTGCTG+CAGCACATATAGCACGTCG ((((((((...((((((((+))))))))...)))))))) | 49 °C |
| CGACGTGCCTAATGTGCTG+CAGCACATATAGCACGTCG ((((((((...((((((((+))))))))...)))))))) | 49.6 °C |
| CGACGTGCAGAATGTGCTG+CAGCACATCTCGCACGTCG ((((((((...((((((((+))))))))...)))))))) | 51.6 °C |
| CGACGTGCTTTATGTGCTG+CAGCACATCGGGCACGTCG ((((((((...((((((((+))))))))...)))))))) | 48.3 °C |
| CGACGTGCGTTATGTGCTG+CAGCACATGGTGCACGTCG ((((((((...((((((((+))))))))...)))))))) | 48.3 °C |
| CGACGTGCAACATGTGCTG+CAGCACATTCTGCACGTCG (((((((((..((((((((+))))))))..))))))))) | 50.1 °C |
| CGACGTGCCCTATGTGCTG+CAGCACATGGCGCACGTCG ((((((((.(.((((((((+)))))))).).)))))))) | 52.9 °C |
| CGACGTGCATCATGTGCTG+CAGCACATCGGGCACGTCG ((((((((...((((((((+))))))))...)))))))) | 47.9 °C |
| CGACGTGCTCCATGTGCTG+CAGCACATACTGCACGTCG ((((((((...((((((((+))))))))...)))))))) | 47.4 °C |
| CGACGTGCTAGATGTGCTG+CAGCACATCAGGCACGTCG ((((((((..(((((((((+)))))))))..)))))))) | 56.2 °C |
| CGACGTGCGAGATGTGCTG+CAGCACATGTCGCACGTCG ((((((((((.((((((((+)))))))).)))))))))) | 60.6 °C |
| CGACGTGCAGGATGTGCTG+CAGCACATTAAGCACGTCG ((((((((...((((((((+))))))))...)))))))) | 50.7 °C |
| CGACGTGCCGCATGTGCTG+CAGCACATGAGGCACGTCG (((((((((.(((((((((+))))))))).))))))))) | 62.6 °C |
| CGACGTGCCGGATGTGCTG+CAGCACATGCCGCACGTCG ((((((((.(.((((((((+)))))))).).)))))))) | 53.4 °C |
| CGACGTGCCCCATGTGCTG+CAGCACATCAAGCACGTCG ((((((((...((((((((+))))))))...)))))))) | 47.3 °C |
| CGACGTGCGGGATGTGCTG+CAGCACATCGTGCACGTCG ((((((((..(((((((((+)))))))))..)))))))) | 56.2 °C |
| CGACGTGCAATATGTGCTG+CAGCACATCGTGCACGTCG (((((((((..((((((((+))))))))..))))))))) | 45.9 °C |
| CGACGTGCTTGATGTGCTG+CAGCACATTGTGCACGTCG ((((((((...((((((((+))))))))...)))))))) | 47.2 °C |
| CGACGTGCACCATGTGCTG+CAGCACATGCCGCACGTCG ((((((((..(((((((((+)))))))))..)))))))) | 48.6 °C |
| CGACGTGCGCGATGTGCTG+CAGCACATAGAGCACGTCG ((((((((.(.((((((((+)))))))).).)))))))) | 55.8 °C |
| CGACGTGCGAGATGTGCTG+CAGCACATAGTGCACGTCG ((((((((...((((((((+))))))))...)))))))) | 47.6 °C |
| CGACGTGCGTAATGTGCTG+CAGCACATGTGGCACGTCG ((((((((...((((((((+))))))))...)))))))) | 51.8 °C |
| CGACGTGCCCAATGTGCTG+CAGCACATTTAGCACGTCG ((((((((..(((((((((+)))))))))..)))))))) | 50.4 °C |
